Values joined by “and” are separate entries in the source; they are usually repeats but may differ in a detail not shown here. Equal values may be shown once.
B1: DAP12, endogenous in macrophage-like differentiated THP-1 cells, O43914 22-113 (natural protein)
chain: LRPVQAQAQSDCSCSTVSPGVLAGIVMGDLVLTVLIALAVYFLGRLVPRGRGAAEAATRKQRITETESPYQELQGQRSDVYSDLNTQRPYYK
B2: DNAX-activating protein of 12 kDa (DAP12) wt, overexpressed in HEK293 cells, O43914 22-113 (natural protein)
chain: B1 chain

Assays:
Details in all cases: remark: other sources report otherwise
[1] = molecular target: T1, DAP12, endogenous in macrophage-like differentiated THP-1 cells (human (endogenous in THP-1)), O43914; experiment: non-reducing SDS-PAGE and western immunoblotting; membranes of differentiated THP-1 cells (wt and TREM2 ko; with or without MG132, lactacystin or chloroquine for 4 h); SDS sample buffer without DTT, 5 min 95 °C
[2] = molecular target: T1, DAP12, endogenous in macrophage-like …; experiment: as above; remark: listed apart in the source
[3] = molecular target: T2, DNAX-activating protein of 12 kDa (DAP12) wt, overexpressed in HEK293 cells, O43914; experiment: SDS-PAGE and western immunoblotting; HEK293 cells transiently expressing DAP12 wt or DAP12 D50A with or without TREM2 (blots of Fig. 5A); SDS resistant oligomers
[4] = molecular target: T2, DNAX-activating protein of 12 kDa …; experiment: SDS-PAGE and western immunoblotting; membranes of HEK293 Flp-In cells stably overexpressing DAP12 alone or with TREM2 wt or TREM2 K186N; with or without proteasome inhibitors (Suppl. Figure S3)

| Binder | stoichiometry N [1] | stoichiometry N [2] | stoichiometry N [3] | stoichiometry N [4] |
| --- | --- | --- | --- | --- |
| B1 | 3 | 2 |  |  |
| B2 |  |  | 3 and 4 | 2 and 3 |
